Patent publication US20220372114A1 (published 2022)

Each binder was assayed against SARS-CoV-1 Spike (SARS-CoV-1, UniProt P59594 14-1195) (assay: ELISA).

Binder	IC50 [nM]
1-L10-A (antibody, V domains shown) VH: EVKLEESGGGLVQPGGSMKLSCVASGFTFNNYWMNWVRQSPEKGLEWVAQMRLKSDNYATHYAESVKGRFTISRDDSKSSVYLQMNNLRAEDTGIYYCIEGYWTYWGQGTLVTVSA VL: QIVLTQSPAIMSASLGERVTMTCTASSSVSSSYLHWYQQKPGSSPKLWIYSTSNLASGVPARFSGNGSGTSYSLTISSMEAEDAATYYCLQYHRSPPYTFGGGTKLEIK	7.5
1-B11-A (antibody, V domains shown) VH: QVQLQQSGPELVKPGASVKISCKASGYTFTDHYINWVKQRPGQGLEWIGWIFPGSGSTYYNEQFKGKATLTVDKSSNTAYMLLSSLTSEDSAVYFCARSGGLRLGFAYWGQGTLVTVSA VL: DIQMTQTTSSLSASLGDRVTISCRASQDISNYLNWYQQKPDGTVKLLIYYTSRLHSGVPSRFSGSGSGTDYSLTISNLEQEDISTYFCQQVNTLPYTFGGGTKLEIK	20.9
9-F6-A (antibody, V domains shown) VH: EVQLQQSGPELVKPGASVKMSCKASGYTFTSYIMHWVKQKPGQGLEWIGYILPYNDGTKYNEKFKGKATLTSDKSSSTAYMELRSLTSEDSAVYYCARWGYSNFLDSWGQGTTLTVSS VL: DIQMTQTTSSLSASLGDRVTISCRASQDINNYLNWYQQKPDGTVKLLIYYTSRLHSGVPSRFSGSGSGTDYSLTIRNLEQEDIATYFCQQGNTLPPTFGGGTKLEIK	5.55
10-B13-A (antibody, V domains shown) VH: QVQLQQSGAELVKPGASVKISCKASGYAFSNYWMNWVKQRPGKGLEWIGQIYPGDGDTNYNGNFKGKATLTADKSSSTAYIQLSSLTSEDSAVYFCGRGFIATVVEVFDHWGLGTTLTVSS VL: DIQMTQTTSSLSASLGDRVTISCRASQDISNYLNWYQQKPDGTVKLLIYYTSRLQSGVPSRFSGSGTGTDYSLTISNLEQEDIATYFCQQGNTLPWTFGGGTKLEIK	19.4
6-O12-A (antibody, V domains shown) VH: QVQLQQPGTELVKPGASVKLSCKASGYTFTSYWMHWVKQRPGQGLEWIGNINPSNGGTNYNEKFRSKATLTVDKSSSTAYMQLSSLTSEDSAVYYCARLGWFLPLGSWGQGTTLTVSS VL: QIVLTQSPAIMSASLGEVITLTCSASSSVSYMHWYQQKSGTSPKLLIYSTSNLASGVPSRFSGSGSGTFYSLTISSVEAEDAADYYCHQWSGYMYTFGGGTKLEIK	5.4
8-A17-A (antibody, V domains shown) VH: QVQLKESGPGLVAPSQSLSITCTVSGFSLTSYAISWVRQPPGKGLEWLGVVWPGGGTNYNSALKSRLSINKDNSKSQVFLKMNSLQTDDTGRYYCARTGYHFDYWGQGTTLTVSS VL: QIVLTQSPAIMSASPGEKVTMTCSVSSSVSYMHWYQQKSGTSPKRWIYDTSKLASGVPARFSGSGSGTSYSLTISSMEAEDAATYYCQQWSSNPPMYTFGGGTKLEIK	5.1
2-P2-A (antibody, V domains shown) VH: EVQLQQSGAELVRPGSSVKMSCKTSGYTFTSYGINWVKQRPGQGLEWIGYIYIGNGYTEYNEKFKGKATLTSDTSSSTAYMQLSSLTSEDSAIYFCARGGVDYWGQGTTLTVSS VL: DVLMTQTPLSLPVSLGDQASISCRSSQSIVHSNGNTYLEWYLQKPGQSPKLLIYKVSNRFSGVPDRFSGSGSGTDFTLKISRVEAEDLGVYYCFQGSHVPYTFGGGTKLEIK	17.9
2-G20-A (antibody, V domains shown) VH: EVQLQQSGPELVKPGASVKMSCKASGYTFPSYVLHWVKQKPGQGLEWIGYIYPYNDGTNYNEKFKGKATLTSDKSSSTAYMELSSLTSEDSAVYYCARGDYGDSAWFPYWGQGTLVTVSA VL: DIVLTQSPASLAVSLGQRATISCRASKSVSTSGYSYMHWYQQKPGQPPKLLIYLASNLKSGVPARFSGGGSGTDFTLNIHPVEEEDAATYYCQLSRELPWTFGGGTKLEIK	6.65

These binders were tested against SARS-CoV-2 (WIV02 isolate) prefusion stabilized spike trimer protein (UniProt P0DTC2 14-1213) (assay: ELISA).

Binder	IC50 [nM]
1-L10-A (antibody, V domains shown) VH: EVKLEESGGGLVQPGGSMKLSCVASGFTFNNYWMNWVRQSPEKGLEWVAQMRLKSDNYATHYAESVKGRFTISRDDSKSSVYLQMNNLRAEDTGIYYCIEGYWTYWGQGTLVTVSA VL: QIVLTQSPAIMSASLGERVTMTCTASSSVSSSYLHWYQQKPGSSPKLWIYSTSNLASGVPARFSGNGSGTSYSLTISSMEAEDAATYYCLQYHRSPPYTFGGGTKLEIK	8.65
2-O12-A (antibody, V domains shown) VH: EVQLQQSGPELVKPGASVKISCKASGYTFTDYYMNWVKQSHGKSLEWIGDINSNNGGTTYDQKFKGKATLTVDRSSSTAYMELRSLTSEDSAVYYCARRGDGHFGGFTYWGQGTLVTVSA VL: not shown	14.9
3-E2-A (antibody, V domains shown) VH: EVQLQQSGPELVKPGASVKISCKASGYTFTDYYMNWVKQSHGKSLEWIGDINPNNGGTSYTQKFKGKATLTVDKSSSKAYMELRSLTSEDSAVYYCARRGDGHYGGFTYWGQGTLVTVSA VL: not shown	18.4
8-H5-A (antibody, V domains shown) VH: QVTLKESGPGILQSSQTLSLTCSLSGFSLSTSGMGVSWVRQPSGKGLEWLAHIYWDDDKRYTPSLKSRLTISTDSSRKQVFLKITSVDTADTATYYCARRDLHDYDGWFAYWGQGTLVTVSA VL: DIVMTQSQKFMSTAVGDRVSVTCKASQNVGTNVAWYQQKPGQSPKALIYSASFRYSGVPDRFSGSGSGTDFTLTISNVQSEDLAEYFCQQYNSYPLTFGSGTKLEIK	12.8
9-F6-A (antibody, V domains shown) VH: EVQLQQSGPELVKPGASVKMSCKASGYTFTSYIMHWVKQKPGQGLEWIGYILPYNDGTKYNEKFKGKATLTSDKSSSTAYMELRSLTSEDSAVYYCARWGYSNFLDSWGQGTTLTVSS VL: DIQMTQTTSSLSASLGDRVTISCRASQDINNYLNWYQQKPDGTVKLLIYYTSRLHSGVPSRFSGSGSGTDYSLTIRNLEQEDIATYFCQQGNTLPPTFGGGTKLEIK	16.7
6-O12-A (antibody, V domains shown) VH: QVQLQQPGTELVKPGASVKLSCKASGYTFTSYWMHWVKQRPGQGLEWIGNINPSNGGTNYNEKFRSKATLTVDKSSSTAYMQLSSLTSEDSAVYYCARLGWFLPLGSWGQGTTLTVSS VL: QIVLTQSPAIMSASLGEVITLTCSASSSVSYMHWYQQKSGTSPKLLIYSTSNLASGVPSRFSGSGSGTFYSLTISSVEAEDAADYYCHQWSGYMYTFGGGTKLEIK	7.62
8-L17-A (antibody, V domains shown) VH: EVQLVESGGGLVQPKGSLKLSCAASGFTFNTYAMHWVRQAPGKGLEWVARIRSKSSNYARYYADSVKDRFTISRDDSQSMLYLQMNNLKTEDTAMYYCVRDHDYYGSSYWFAYWGQGTLVTVSA VL: DVVMTQTPLSLPVSLGDQASISCRSSQSLVHNNGNTYLHWYLQKPGQSPKLLIYKVSNRFSGVPDRFSGSGSGTDFTLKISRVEAEDLGVYFCSQSTHVPWTFGGGTKLEIK	60.8
8-H3-A (antibody, V domains shown) VH: EVQLVESGGGLVQPKGSLKLSCAASGFTFNTYAMHWVRQAPGKGLEWVARIRSKSSNYATYYADSVKDRFTISRDDSQSMLYLQMNNLKTEDTAMYYCVRDHDYYGSSYWFTYWGQGTLVTVSA VL: DVVMTQTPLSLPVSLGDQASISCRSSQSLVHDNGNTYLHWFLQKPGQSPKLLIYKVSNRFSGVPDRFSGSGSGTDFTLKISRVETEDLGVYFCSQSTHVPWTFGGGTKLEIK	19.4
4-L4-A (antibody, V domains shown) VH: QAYLQQSGAELVRPGASVKMSCKASGYTFTSYTVHWVKQTPRQGLEWIGGIYPGNVDTSYNQNFKGKATLTVDKSSSTAYMQLSSLTSEDSAVYFCARDGYYAMDYWGQGTSVTVSS VL: not shown	8.34
4-M3-A (antibody, V domains shown) VH: EVQLQQSGPELVKPGDSVKISCKASGYSFTGYFMNWVMQSHGKSLEWIGRINPNNGETFYNQKFKGKATLTVDKSSDTAHMELRSLTSEDSAVYYCARGGTGTGWGQGTTLTVSS VL: DILMTQSPSSMSVSLGDTVSITCHASQGISSNIGWLQQKPGKSFKGLIYYGTNLEDGVPSRFSGSGSGADYSLTISSLESEDLADYYCIQYAQFPYTFGGGTKLEIK	7.36
4-N22-A (antibody, V domains shown) VH: QVQLQQPGTELVKPGASVKLSCKASGYTFTNYWMYWVKQRPGQGLDWIGNINPSNGGTNYNEKFKSKATLTVDKSSSTAYMQLSSLTSEDSAVYYCARETGNYWGQGTTLTVSS VL: DILMTQSPSSMSVSLGDTVSISCHASQGISSNIGWLQQKPGKSFKGLIYHGTNLEDGVPSRFSGSGSGADYSLTISSLESEDFADYYCVQYAQFPYTFGGGTKLEIK	4.93
3-P7-A (antibody, V domains shown) VH: QAYLQQSGAELVRPGASVKMSCKASGYTFTSYSMHWVKQTPRQGLEWIGAIYPGNDDTSYNQKFKGKATLTVDKSSSTAYMQLSSLTSEDSAVYFCTRDYTNYPFDYWGQGTTLTVSS VL: DIVLTQSPASLPVSLGQRATISCRASKSVSTSGYSYMHWYQQRPGQPPKLLIYLASNLESGVPARFSASGSGTDFTLNIHPVEEEDAATYYCQHSRELPPTFGGGTKVEIK	8.86
10-O24-A (antibody, V domains shown) VH: QAYLQQSGAELVRPGASVKMSCKASGYTFTSYSMHWVKQTPRQGLEWIGAIYPGNDDTSYNQKFKGKATLTVDRSSSTAYMQLSSLTSEDSAVYFCTRDYSNYPFDYWGQGTTLTVSS VL: DIVLTQSPASLAVFLGQRATISCRASKSVSTSGYSYMHWYQQRPGQPPKLLIYLASNLESGVPARFSGSGSGTDFTLNIHPVEEEDAATYYCQHSRELPPTFGGGTKLEIK	5.84
2-H7-A (antibody, V domains shown) VH: QAYLQQSGAELVRPGASVKMSCKASGYTFTGYTMHWVKQTPRQGLEWIGAIYPENGDTSYNQKFKGKATLTVDKSSSTAYMQLSSLTSEDSAVYFCARDGYDVLYGMDYWGQGTSVTVSS VL: DIVLTQSPASLAVSLGQRATISCRASKSVSTSGYSYMHWYQQKPGQPPKLLIYLASNLESGVPARFSGSGSGTDFTLNIHPVEEEDAATYYCQHSRELPWTFGGGTKLDIK	7.21
2-G20-A (antibody, V domains shown) VH: EVQLQQSGPELVKPGASVKMSCKASGYTFPSYVLHWVKQKPGQGLEWIGYIYPYNDGTNYNEKFKGKATLTSDKSSSTAYMELSSLTSEDSAVYYCARGDYGDSAWFPYWGQGTLVTVSA VL: DIVLTQSPASLAVSLGQRATISCRASKSVSTSGYSYMHWYQQKPGQPPKLLIYLASNLKSGVPARFSGGGSGTDFTLNIHPVEEEDAATYYCQLSRELPWTFGGGTKLEIK	18.3
9-K4-A (antibody, V domains shown) VH: QAYLQQSGAELVRPGASVKMSCKASGYTFPNYSFHWVKQTPRQGLEWIGAIYPGNDDTSYNQRFKGKATLTVDKSSSTAYMQLSSLTSEDSAVYFCARDYSNYPFDCWGQGTTLTVSS VL: DIVLTQSPASLAVSLGQRATISCRASKSVSTSGYSYMHWYQQKPGQPPKLLIYLASNLESGVPARFSGSGSGTDFTLNIHPVEEEDAATYYCQHSRELPPTFGGGTKLEIK	72.6
